Measurements: patent CN109836488A, “一种治疗代谢疾病的胰高血糖素类似物” (Zhejiang Doer Biologics Co Ltd, priority 2017, dated 2019)

Assays:
[1] = cited from earlier work
[2] = Immunogenicity test, antibody titre by direct ELISA, Example 6; format: in vivo, mouse (Balb/c); details: 30 nmol/kg daily for 28 days, serum on day 45
GIPR = target: T1, GIPR (Homo sapiens, UniProt P48546); details: cited from earlier work
T1 sequence (P48546 22-466): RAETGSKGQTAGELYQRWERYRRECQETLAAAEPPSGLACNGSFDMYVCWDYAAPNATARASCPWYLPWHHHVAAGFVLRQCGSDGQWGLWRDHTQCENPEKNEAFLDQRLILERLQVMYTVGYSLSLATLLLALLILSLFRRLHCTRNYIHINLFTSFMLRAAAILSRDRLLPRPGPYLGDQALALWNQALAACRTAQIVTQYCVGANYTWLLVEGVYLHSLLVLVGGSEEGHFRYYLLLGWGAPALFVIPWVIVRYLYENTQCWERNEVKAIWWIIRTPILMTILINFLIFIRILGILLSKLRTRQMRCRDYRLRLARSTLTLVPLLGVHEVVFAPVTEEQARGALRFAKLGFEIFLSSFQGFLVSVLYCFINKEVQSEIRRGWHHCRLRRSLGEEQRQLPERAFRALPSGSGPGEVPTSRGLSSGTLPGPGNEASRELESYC

[3] = human, in vivo; cited from earlier work

GLP-1 [天然GLP-1]
Half-life in vivo [1]: ~2 分钟

Glucagon [C001]
Immunogenicity in vivo [2]: 极低
GIPR agonist activity (GIPR): 没有GIPR激动活性

Taspoglutide
Antibody formation rate [3]: 49 %
